Assay results published in paper PMC3592467.

Target: T1, MBD3-GFP, O95983
T1 chain: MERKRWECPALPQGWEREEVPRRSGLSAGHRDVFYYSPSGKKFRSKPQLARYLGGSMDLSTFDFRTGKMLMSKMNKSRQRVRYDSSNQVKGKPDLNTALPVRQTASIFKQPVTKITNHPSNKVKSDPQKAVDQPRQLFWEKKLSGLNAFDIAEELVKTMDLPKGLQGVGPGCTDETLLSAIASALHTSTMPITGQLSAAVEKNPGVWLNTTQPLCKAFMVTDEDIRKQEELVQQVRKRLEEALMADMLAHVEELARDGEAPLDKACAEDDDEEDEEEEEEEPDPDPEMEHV
Experiment: affinity purification with mass spectrometry
Settings: remark: other sources report otherwise

B1: DOC-1, O14519 1-115 (natural protein)
chain: MSYKPNLAAHMPAAALNAAGSVHSPSTSMATSSQYRQLLSDYGPPSLGYTQGTGNSQVPQSKYAELLAIIEELGKEIRPTYAGSKSAMERLKRGIIHARGLVRECLAETERNARS
stoichiometry N: 2 per MBD3
